Experiment [1] addresses Anti-CD28 Fab (SEQ ID NOs: 696, 697). As to the kind of experiment: phage ELISA on captured anti-CD28 Fab; competitor CD28 antigen pre-incubated in the wells.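 Further: clonal phage supernatants added to wells preloaded with CD28 antigen in blocking buffer, control wells buffer only, bound phage read via HRP-linked anti-M13 antibody.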 On the technique in general: In an ELISA, binding on a coated surface is turned into a signal by an enzyme label.
Target sequence in this assay (VH, as listed by the source, chain 1 of 2): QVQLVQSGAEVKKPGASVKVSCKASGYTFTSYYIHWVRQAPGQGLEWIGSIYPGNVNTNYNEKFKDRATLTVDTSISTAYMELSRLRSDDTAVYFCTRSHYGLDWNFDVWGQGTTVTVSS
Target sequence in this assay (VL, as listed by the source, chain 2 of 2): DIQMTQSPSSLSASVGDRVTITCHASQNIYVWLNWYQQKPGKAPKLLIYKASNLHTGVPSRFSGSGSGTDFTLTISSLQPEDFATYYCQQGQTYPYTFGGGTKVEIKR
Description: (§1) After panning, phage infected bacteria were plated out and colonies picked into 96 well blocks. Clonal phage was then amplified and separated from bacterial cells via centrifugation.
(§2) Clonal phage were harvested as crude supematants and screened via standard ELISAs. […] Prior to the addition of clonal phage, wells were incubated with blocking buffer and CD28 antigen or blocking buffer alone. Without washing or aspirating, clonal phage supematants were then added to the wells and incubated for a short time. Wells were then washed followed by detection of bound phage using a horse radish conjugated anti-M13 antibody. Clonal phage of interest were then sent for sequence analysis.
Experiment [2] has the same target. Briefly: phage ELISA; clonal phage on biotinylated anti-CD28 Fab captured on neutravidin, anti-M13 HRP detection.
Target sequence in this assay (VH, as listed by the source, chain 1 of 2): as the sequence (VH, as listed by the source, chain 1 of 2) above
Target sequence in this assay (VL, as listed by the source, chain 2 of 2): as the sequence (VL, as listed by the source, chain 2 of 2) above
Description: as §1, §2
Experiment [3] concerns the target T1, Anti-CD28 Fab (SEQ ID NOs: 696, 697).
T1 construct: Biotinylated and captured on neutravidin coated plates in the phage ELISA
As to the kind of experiment: phage binding ELISA on captured anti-CD28 Fab, wells pre-incubated with CD28 antigen as competitor; anti-M13 HRP detection.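 Further: crude clonal phage supernatants added to wells preloaded with CD28 antigen, bound phage read by HRP-conjugated anti-M13 antibody, control wells got blocking buffer alone without CD28.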
T1 sequence (VH, as listed by the source, chain 1 of 2): as the sequence (VH, as listed by the source, chain 1 of 2) above
T1 sequence (VL, as listed by the source, chain 2 of 2): as the sequence (VL, as listed by the source, chain 2 of 2) above
Description: as §1, §2

For experiment [4] the target is unchanged. Briefly: phage binding ELISA; clonal phage supernatant on biotinylated anti-CD28 Fab captured on neutravidin plate; anti-M13 HRP detection.
Target sequence in this assay (VH, as listed by the source, chain 1 of 2): as the sequence (VH, as listed by the source, chain 1 of 2) above
Target sequence in this assay (VL, as listed by the source, chain 2 of 2): as the sequence (VL, as listed by the source, chain 2 of 2) above
Description: as §1, §2
Experiment [5] concerns the target T2, Anti-CD28 Fab (SEQ ID NOs: 696, 697).
T2 construct: In the phage ELISA the Fab was biotinylated and captured on neutravidin coated plates
Briefly: phage binding ELISA on captured anti-CD28 Fab, wells pre-incubated with CD28 antigen as competitor.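 Further: crude clonal phage supernatants added to wells preloaded with CD28 antigen, bound phage read by HRP-conjugated anti-M13 antibody, control wells got blocking buffer alone without CD28.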
T2 sequence (VH, as listed by the source, chain 1 of 2): as the sequence (VH, as listed by the source, chain 1 of 2) above
T2 sequence (VL, as listed by the source, chain 2 of 2): as the sequence (VL, as listed by the source, chain 2 of 2) above
Description: as §1, §2

For experiment [6] the target is unchanged. As to the kind of experiment: phage binding ELISA, clonal phage on biotinylated anti-CD28 Fab captured on neutravidin plates, anti-M13 HRP detection.
Target sequence in this assay (VH, as listed by the source, chain 1 of 2): as the sequence (VH, as listed by the source, chain 1 of 2) above
Target sequence in this assay (VL, as listed by the source, chain 2 of 2): as the sequence (VL, as listed by the source, chain 2 of 2) above
Description: as §1, §2

Where no end group is shown, it is not given here.

With YCDGHLGVYMAKCL [Phage-822 (Peptide-87 library peptide, SEQ ID NO: 1138)], the “Phage binding ELISA, Anti-CD28 Fab signal in the presence of CD28” value (from here on “Phage binding ELISA … of CD28”) in experiment [1] is 0.07. Also, in experiment [2], the “Phage binding ELISA, Anti-CD28 Fab signal” value is 1.79.

As to YCAGHAEQYMAKCL [Phage-820 (Peptide-87 library peptide, SEQ ID NO: 1136)], in experiment [1], the “Phage binding ELISA … of CD28” value stood at 0.08. The “Phage binding ELISA, Anti-CD28 Fab signal” value in experiment [2] amounted to 1.8.

Regarding YCEGHHPQYMAKCL [Phage-828 (Peptide-87 library sequence, SEQ ID NO: 1144)], the “Phage binding ELISA … of CD28” value in experiment [3] is 0.09. For the same molecule, the “Phage binding ELISA, Anti-CD28 Fab signal” value in experiment [4] was determined as 1.78.

B1: Phage-847 (peptide)
peptide: YCDGHVQEYMQKCL
notes: Peptide-87 library clone, tested as clonal phage supernatant
With B1, the “Anti-CD28 Fab signal in the presence of CD28” value in experiment [5] worked out at 0.07. In addition, the “Anti-CD28 Fab (SEQ ID NOs: 696, 697) signal” value in experiment [6] is 1.76.

B2: Phage-844 (peptide)
peptide: YCDGHKPQYMEKCL
notes: as for B1
In the case of B2, the “Anti-CD28 Fab signal in the presence of CD28” value in experiment [5] was 0.08. The “Anti-CD28 Fab (SEQ ID NOs: 696, 697) signal” value in experiment [6] stood at 1.76.

As to YCDGHSAEYITKCL [Phage-830 (Peptide-87 library sequence, SEQ ID NO: 1146)], in experiment [3], the “Phage binding ELISA … of CD28” value is 0.06. The “Phage binding ELISA, Anti-CD28 Fab signal” value in experiment [4] is 1.77.

Regarding YCDGHTSEYITKCL [Phage-823 (Peptide-87 library peptide, SEQ ID NO: 1139)], in experiment [1], the “Phage binding ELISA … of CD28” value came out at 0.07. Further, the “Phage binding ELISA, Anti-CD28 Fab signal” value in experiment [2] was 1.79.

Regarding YCDGHLSEYMFKCL [Phage-821 (Peptide-87 library peptide, SEQ ID NO: 1137)], the “Phage binding ELISA … of CD28” value in experiment [1] turned out to be 0.1. Besides, the “Phage binding ELISA, Anti-CD28 Fab signal” value in experiment [2] came to 1.79.

B3: Phage-843 (peptide)
peptide: YCDGHVEPYLSKCL
modifications: cysteine pairing not given here; also: displayed on phage by fusion to pIII, pIII and linker sequence not given here
notes: as for B1
With B3, in experiment [5], the “Anti-CD28 Fab signal in the presence of CD28” value stood at 0.1. The “Anti-CD28 Fab (SEQ ID NOs: 696, 697) signal” value in experiment [6] worked out at 1.76.

B4: Phage-840 (peptide)
peptide: YCDGHSPQYMQKCL
modifications: cysteine pairing not given here; also: displayed on phage by fusion to pIII, pIII and linker sequence not given here
notes: as for B1
Take B4: the “Anti-CD28 Fab signal in the presence of CD28” value in experiment [5] was 0.07. For the same molecule, the “Anti-CD28 Fab (SEQ ID NOs: 696, 697) signal” value in experiment [6] stood at 1.76.

Regarding YCDGHAPMYMAKCL [Phage-826 (Peptide-87 library peptide, SEQ ID NO: 1142)], the “Phage binding ELISA … of CD28” value in experiment [1] worked out at 0.08. Besides, in experiment [2], the “Phage binding ELISA, Anti-CD28 Fab signal” value amounted to 1.79.

For the molecule YCEGHLDEYMWKCL [Phage-831 (Peptide-87 library sequence, SEQ ID NO: 1147)], the “Phage binding ELISA … of CD28” value in experiment [3] came out at 0.06. Also, in experiment [4], the “Phage binding ELISA, Anti-CD28 Fab signal” value was 1.77.

Consider YCDGLASEYMSKCL [Phage-832 (Peptide-87 library sequence, SEQ ID NO: 1148)], for which, in experiment [3], the “Phage binding ELISA … of CD28” value was determined as 0.05. Besides, in experiment [4], the “Phage binding ELISA, Anti-CD28 Fab signal” value worked out at 1.77.

As for YCEGHSPQYVQKCL [Phage-834 (Peptide-87 library sequence, SEQ ID NO: 1150)], the “Phage binding ELISA … of CD28” value in experiment [3] was found to be 0.06. For the same molecule, the “Phage binding ELISA, Anti-CD28 Fab signal” value in experiment [4] amounted to 1.77.

Turning to YCEGHLPIYMSKCL [Phage-838 (Peptide-87 library sequence, SEQ ID NO: 1154)], in experiment [3], the “Phage binding ELISA … of CD28” value was 0.09. Also, in experiment [4], the “Phage binding ELISA, Anti-CD28 Fab signal” value amounted to 1.76.

Take YCEGHLPAYMQKCL [Phage-827 (Peptide-87 library sequence, SEQ ID NO: 1143)]: in experiment [3], the “Phage binding ELISA … of CD28” value was found to be 0.07. Also, in experiment [4], the “Phage binding ELISA, Anti-CD28 Fab signal” value was found to be 1.78.

For YCVGHAPEFMAKCL [Phage-819 (Peptide-87 library peptide, SEQ ID NO: 1135)], in experiment [1], the “Phage binding ELISA … of CD28” value came to 0.1. The “Phage binding ELISA, Anti-CD28 Fab signal” value in experiment [2] is 1.8.

B5: Phage-841 (peptide)
peptide: YCDGHIPEYLAKCL
modifications: cysteine pairing not given here; also: displayed on phage by fusion to pIII, pIII and linker sequence not given here
notes: as for B1
On to B5, for which, in experiment [5], the “Anti-CD28 Fab signal in the presence of CD28” value is 0.06. Moreover, in experiment [6], the “Anti-CD28 Fab (SEQ ID NOs: 696, 697) signal” value worked out at 1.76.

B6: Phage-846 (peptide)
peptide: YCEGHLAQYMNKCL
notes: as for B1
In the case of B6, the “Anti-CD28 Fab signal in the presence of CD28” value in experiment [5] came to 0.07. The “Anti-CD28 Fab (SEQ ID NOs: 696, 697) signal” value in experiment [6] worked out at 1.76.

For the molecule YCDGHLAEYMVKCL [Phage-825 (Peptide-87 library peptide, SEQ ID NO: 1141)], in experiment [1], the “Phage binding ELISA … of CD28” value turned out to be 0.08. Also, the “Phage binding ELISA, Anti-CD28 Fab signal” value in experiment [2] came to 1.79.

B7: Phage-845 (peptide)
peptide: YCDGHIGEYMVKCL
notes: as for B1
Turning to B7, in experiment [5], the “Anti-CD28 Fab signal in the presence of CD28” value stood at 0.66. Moreover, the “Anti-CD28 Fab (SEQ ID NOs: 696, 697) signal” value in experiment [6] came out at 1.76.

Regarding YCDGHLDEYMEKCL [Phage-836 (Peptide-87 library sequence, SEQ ID NO: 1152)], in experiment [3], the “Phage binding ELISA … of CD28” value was 0.08. For the same molecule, the “Phage binding ELISA, Anti-CD28 Fab signal” value in experiment [4] came to 1.76.

With YCAGHVPEYMAKCL [Phage-829 (Peptide-87 library sequence, SEQ ID NO: 1145)], the “Phage binding ELISA … of CD28” value in experiment [3] turned out to be 0.07. Further, the “Phage binding ELISA, Anti-CD28 Fab signal” value in experiment [4] turned out to be 1.78.

Take YCEGHSPEYMRKCL [Phage-835 (Peptide-87 library sequence, SEQ ID NO: 1151)]: the “Phage binding ELISA … of CD28” value in experiment [3] was determined as 0.08. Further, the “Phage binding ELISA, Anti-CD28 Fab signal” value in experiment [4] was 1.77.

For the molecule YCAGHLPEYMLKCL [Phage-837 (Peptide-87 library sequence, SEQ ID NO: 1153)], the “Phage binding ELISA … of CD28” value in experiment [3] stood at 0.09. In experiment [4], the “Phage binding ELISA, Anti-CD28 Fab signal” value came to 1.76.

B8: Phage-842 (peptide)
peptide: YCDGHSQEYMLKCL
modifications: cysteine pairing not given here; also: displayed on phage by fusion to pIII, pIII and linker sequence not given here
notes: as for B1
In the case of B8, the “Anti-CD28 Fab signal in the presence of CD28” value in experiment [5] was 0.05. Also, the “Anti-CD28 Fab (SEQ ID NOs: 696, 697) signal” value in experiment [6] is 1.76.

In the case of YCDGHSSEYIAKCL [Phage-833 (Peptide-87 library sequence, SEQ ID NO: 1149)], the “Phage binding ELISA … of CD28” value in experiment [3] worked out at 0.07. Moreover, the “Phage binding ELISA, Anti-CD28 Fab signal” value in experiment [4] is 1.77.

For the molecule YCDGHSPEYIAKCL [Phage-824 (Peptide-87 library peptide, SEQ ID NO: 1140)], the “Phage binding ELISA … of CD28” value in experiment [1] is 0.23. Further, the “Phage binding ELISA, Anti-CD28 Fab signal” value in experiment [2] was determined as 1.79.

Regarding YCVGHLQEYMEKCL [Phage-839 (Peptide-87 library sequence, SEQ ID NO: 1155)], in experiment [3], the “Phage binding ELISA … of CD28” value turned out to be 0.06. The “Phage binding ELISA, Anti-CD28 Fab signal” value in experiment [4] turned out to be 1.76.

For the origin of these results see patent publication US20260242478A1 (published 2026).
